Measurements from US20090053725 (United States as represented by Secretary of the Air Force, published 2009).

What was measured:
Ovalbumin = Ovalbumin (UniProt P01012 P01012:2-386); experiment: control protein, no fluorescence increase; same conditions; Example 1 likewise no increase; conditions: tags: Sigma-Aldrich; immobilized on maleic anhydride plate; label: Birch Yellow T1 Evitag quantum dot on plus strand; BHQ2 quencher on negative strand; partial duplex, 3' 19 nt of the aptamer paired, 5' single-stranded overhang
Shiga toxin = Shiga toxin (UniProt Q9FBI2;Q7BQ98 Q9FBI2:23-315,Q7BQ98:21-89)
Shiga toxin, sequence (Q9FBI2 23-315, chain 1 of 2): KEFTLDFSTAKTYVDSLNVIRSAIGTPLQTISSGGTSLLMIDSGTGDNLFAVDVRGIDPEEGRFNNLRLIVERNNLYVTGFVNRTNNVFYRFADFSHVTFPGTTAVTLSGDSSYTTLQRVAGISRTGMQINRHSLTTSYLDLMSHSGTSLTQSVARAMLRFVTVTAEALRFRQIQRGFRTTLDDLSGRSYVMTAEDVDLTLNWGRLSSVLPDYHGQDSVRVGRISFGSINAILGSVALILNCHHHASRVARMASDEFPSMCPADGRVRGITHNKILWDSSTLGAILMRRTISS
Shiga toxin, sequence (Q7BQ98 21-89, chain 2 of 2): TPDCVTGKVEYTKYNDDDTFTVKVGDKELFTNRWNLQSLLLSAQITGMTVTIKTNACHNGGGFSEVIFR

Ovalbumin, sequence (P01012 2-386, one chain of several): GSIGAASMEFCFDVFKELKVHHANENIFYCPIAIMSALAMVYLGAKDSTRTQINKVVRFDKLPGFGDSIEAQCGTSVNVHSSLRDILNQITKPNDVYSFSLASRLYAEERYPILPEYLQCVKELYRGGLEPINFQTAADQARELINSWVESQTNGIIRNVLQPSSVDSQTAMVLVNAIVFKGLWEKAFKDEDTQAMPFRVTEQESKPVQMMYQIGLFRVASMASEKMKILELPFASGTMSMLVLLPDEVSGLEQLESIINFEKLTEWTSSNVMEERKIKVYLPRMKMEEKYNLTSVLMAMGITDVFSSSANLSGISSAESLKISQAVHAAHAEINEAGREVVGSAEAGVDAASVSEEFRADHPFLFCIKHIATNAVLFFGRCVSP

B1: STJ-9 annealed quenched complex (Plus STJ-9 / Negative STJ-9) (dsDNA)
DNA 1: GGTAACTAGCATTCATTTCCCACACCCGTCCCGTCCATAT
DNA 2: ATATGGACGGGACGGGTGT
modifications: 3' amine on plus strand; 5' BHQ2 on negative strand
Does B1 bind (Ovalbumin)?
Result: no binding

Does GGTAACTAGCATTCATTTCCCACACCCGTCCCGTCCATAT (ssDNA) [Plus STJ-9] bind (Shiga toxin)?
Result: binds
